The values below come from patent US20220251236A1 (Boehringer Ingelheim, published 2022).

The target of test [1] is T1, human DLL3 (endogenous, on SCLC cell lines NCI-H82 and SHP77 and in SCLC tissue) (human, UniProt Q9NYJ7 27-618).
T1 sequence (looked up): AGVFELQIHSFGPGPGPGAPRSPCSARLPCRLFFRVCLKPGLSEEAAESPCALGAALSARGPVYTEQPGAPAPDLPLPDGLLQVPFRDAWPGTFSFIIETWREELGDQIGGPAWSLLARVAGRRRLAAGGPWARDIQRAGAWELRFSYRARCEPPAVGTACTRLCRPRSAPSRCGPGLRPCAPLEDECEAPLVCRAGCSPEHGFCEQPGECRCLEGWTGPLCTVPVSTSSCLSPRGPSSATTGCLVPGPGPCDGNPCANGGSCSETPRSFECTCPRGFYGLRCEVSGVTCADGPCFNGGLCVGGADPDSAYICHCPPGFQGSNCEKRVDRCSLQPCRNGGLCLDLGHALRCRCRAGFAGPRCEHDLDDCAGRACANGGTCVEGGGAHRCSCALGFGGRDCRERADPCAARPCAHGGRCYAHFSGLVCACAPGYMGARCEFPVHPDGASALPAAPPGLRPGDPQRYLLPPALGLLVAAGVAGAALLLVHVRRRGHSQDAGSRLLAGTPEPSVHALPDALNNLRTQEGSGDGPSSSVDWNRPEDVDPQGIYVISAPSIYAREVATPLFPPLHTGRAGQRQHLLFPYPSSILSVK
As to the kind of experiment: cell-based or functional assay.

Test [2] addresses T1, human DLL3 (endogenous, on SCLC cell …). As to the kind of experiment: cell-based or functional assay. The source holds these as a separate data set.
The next test concerns the target T2, EGF2+3.
T2 construct: also called Hu DLL3 EGF2+3 on HEK293 cells
T2 membrane-anchored DLL3 subdomain construct: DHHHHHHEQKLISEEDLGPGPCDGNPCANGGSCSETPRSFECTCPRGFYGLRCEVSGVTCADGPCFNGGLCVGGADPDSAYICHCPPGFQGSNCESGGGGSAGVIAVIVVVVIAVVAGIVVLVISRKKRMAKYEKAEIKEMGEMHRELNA
As to the kind of experiment: flow cytometry on HEK293 cells expressing the DLL3 subdomain construct, PE anti-human secondary, control: secondary antibody only. A digest of the protocol:
(§1)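 Binders tested on HEK293 cells displaying the DLL3 subdomain construct; bound molecules detected by flow cytometry using PE-conjugated anti-human secondary antibody. Negative control: cells with secondary antibody only.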

In the next test the target is T3, EGF3+4.
T3 construct: also called Hu DLL3 EGF3+4 on HEK293 cells
T3 membrane-anchored DLL3 subdomain construct: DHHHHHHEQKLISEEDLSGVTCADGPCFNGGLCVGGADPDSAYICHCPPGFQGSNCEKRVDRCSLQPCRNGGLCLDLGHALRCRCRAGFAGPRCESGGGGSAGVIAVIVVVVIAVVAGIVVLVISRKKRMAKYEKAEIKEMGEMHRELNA
The description is as above. A digest of the protocol: as §1

Another test addresses T4, EGF1+2.
T4 construct: also called Hu DLL3 EGF1+2 on HEK293 cells
T4 membrane-anchored DLL3 subdomain construct: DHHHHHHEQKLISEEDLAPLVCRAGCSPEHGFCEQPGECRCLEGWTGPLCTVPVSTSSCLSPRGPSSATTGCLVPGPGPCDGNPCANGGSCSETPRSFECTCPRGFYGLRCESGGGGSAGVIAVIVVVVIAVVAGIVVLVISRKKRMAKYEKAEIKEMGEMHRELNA
The test is described as above. The gist of the method:
as §1

Another test concerns the target T5, EGF4+5.
T5 construct: also called Hu DLL3 EGF4+5 on HEK293 cells
T5 membrane-anchored DLL3 subdomain construct: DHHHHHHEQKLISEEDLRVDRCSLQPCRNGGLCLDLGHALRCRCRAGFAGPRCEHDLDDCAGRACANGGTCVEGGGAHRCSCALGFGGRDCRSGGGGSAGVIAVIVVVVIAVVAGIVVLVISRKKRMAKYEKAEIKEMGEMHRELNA
The description is as above. The gist of the method:
as §1

Another test has as its target T6, EGF5+6.
T6 construct: also called Hu DLL3 EGF5+6 on HEK293 cells
T6 membrane-anchored DLL3 subdomain construct: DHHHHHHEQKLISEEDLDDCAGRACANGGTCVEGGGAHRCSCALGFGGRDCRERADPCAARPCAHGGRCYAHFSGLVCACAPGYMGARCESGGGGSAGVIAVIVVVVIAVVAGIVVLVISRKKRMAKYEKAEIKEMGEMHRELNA
Described as above. The gist of the method: as §1

In test [3] the target is T7, EGF6+MEMBRANE PROXIMAL PEPTIDE.
T7 construct: also called Hu DLL3 EGF6+membrane proximal peptide on HEK293 cells
T7 membrane-anchored DLL3 subdomain construct: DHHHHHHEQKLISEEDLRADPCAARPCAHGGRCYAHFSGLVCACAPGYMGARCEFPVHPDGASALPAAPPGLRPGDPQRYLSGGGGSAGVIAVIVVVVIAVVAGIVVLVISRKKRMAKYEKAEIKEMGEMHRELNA
As to the kind of experiment: flow cytometry on HEK293 cells expressing the DLL3 subdomain construct, 1.6 nM binder, PE anti-human secondary, control: secondary antibody only. The method, then:
DLL3/CD3 binding proteins were produced by transient transfection of CHO-E cells with the pTT5 vectors carrying the chain-encoding genes, as described in Example 2. […] Bound molecules were detected with PE-conjugated anti-human secondary antibody (Sigma-Aldrich, #P8047). As negative control, cells were incubated with secondary antibody only.
The samples were measured by flow-cytometry. […] The sequences of the epitope domains are listed in Example 5, Table 3.

The target in test [4] is T8, trypsin inhibitor from glycine max soybean (Glycine max (soybean)).
T8 construct: also called Tryp
T8 sequence (P01070 25-205): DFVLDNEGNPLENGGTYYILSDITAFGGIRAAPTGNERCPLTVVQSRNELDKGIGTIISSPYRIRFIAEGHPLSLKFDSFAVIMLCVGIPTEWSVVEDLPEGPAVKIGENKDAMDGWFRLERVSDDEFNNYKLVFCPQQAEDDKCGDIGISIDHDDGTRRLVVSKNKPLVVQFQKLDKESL
As to the kind of experiment: SPR (Biacore T200), trypsin inhibitor on CM5 chip, sample at 1 µM. The text has this: To prepare the surface for the non-specific binding experiment, chicken egg white lysozyme and trypsin inhibitor from glycine max soybean were coupled manually to a series S CM5 chip with the surface density of 3000-5000 RU using the amine coupling kit according to the manufacture instructions.
For orientation: SPR reads the build-up and loss of mass on a sensor chip optically.

Test [5] has as its target T7, EGF6+MEMBRANE PROXIMAL PEPTIDE. Description: flow cytometry on HEK293 cells expressing the DLL3 subdomain construct, PE anti-human secondary, control: secondary antibody only. The gist of the method: as §1

B1: DLL3#2/CD3#1 (bispecific antibody, human IgG1, kappa, lambda, L234A L235A)
chain 1: DIQMTQSPSAMSASVGDRVTITCRASQGISNYLAWFQQKPGKVPEPLIYAASSLQSGVPSRFSGSGSVTEFTLTISSLQPEDFATYYCLQHNSSPYTFGQGTKLEIKRTVAAPSVFIFPPSDEQLKSGTASVVCLLNNFYPREAKVQWKVDNALQSGNSQESVTEQDSKDSTYSLSSTLTLSKADYEKHKVYACEVTHQGLSSPVTKSFNRGECGGGGSEGKSSGSGSESKSTEGKSSGSGSESKSTGGGGSQVQLVQSGAEVKKPGASVKVSCKASGYTFTSYYMHWVRQAPGQGLEWMGIINPSGGSTSYAQKFQGRVTMTRDTSTSTVYMELSSLRSEDTAVYYCARGEAVGGNYYYYGMDVWGQGTTVTVSSASTKGPSVFPLAPSSKSTSGGTAALGCLVKDYFPEPVTVSWNSGALTSGVHTFPAVLQSSGLYSLSSVVTVPSSSLGTQTYICNVNHKPSNTKVDKRVEPKSCDKTHTCPPCPAPEAAGGPSVFLFPPKPKDTLMISRTPEVTCVVVDVSHEDPEVKFNWYVDGVEVHNAKTKPREEQYNSTYRVVSVLTVLHQDWLNGKEYKCKVSNKALPAPIEKTISKAKGQPREPQVYTLPPSREEMTKNQVSLWCLVKGFYPSDIAVEWESNGQPENNYKTTPPVLDSDGSFFLYSKLTVDKSRWQQGNVFSCSVMHEALHNHYTQKSLSLSPG
chain 2: EAVVTQEPSLTVSPGGTVTLTCRSSTGAVTTSNYANWVQEKPGQLPRGLIGGTNKRAPWVPARFSGSLLGGKAALTLSGAQPEDEAEYFCALWYSNLWVFGGGTKLTVLGQPKAAPSVTLFPPSSEELQANKATLVCLISDFYPGAVKVAWKADGSPVNTGVETTTPSKQSNNKYAASSYLSLTPEQWKSHRSYSCQVTHEGSTVEKTVAPAECSGGGGSEGKSSGSGSESKSTEGKSSGSGSESKSTGGGGSEVQLVESGGGLVQPGGSLKLSCAASGFTFNTYAMNWVRQAPGKGLEWVARIRSKYNNYATYYADSVKDRFTISRDDSKNTAYLQMNNLKTEDTAVYYCVRHGNFGNSYVSWFAYWGQGTLVTVSAASTKGPSVFPLAPSSKSTSGGTAALGCLVKDYFPEPVTVSWNSGALTSGVHTFPAVLQSSGLYSLSSVVTVPSSSLGTQTYICNVNHKPSNTKVDKRVEPKSCDKTHTCPPCPAPEAAGGPSVFLFPPKPKDTLMISRTPEVTCVVVDVSHEDPEVKFNWYVDGVEVHNAKTKPREEQYNSTYRVVSVLTVLHQDWLNGKEYKCKVSNKALPAPIEKTISKAKGQPREPQVYTLPPSREEMTKNQVSLSCAVKGFYPSDIAVEWESNGQPENNYKTTPPVLDSDGSFFLVSKLTVDKSRWQQGNVFSCSVMHEALHNRFTQKSLSLSPG
notes: Heterodimer of one DLL3 chain and one CD3 chain (scFab-Fc, knob-in-hole)
In the case of B1, the “EC90, 72 hour cytotoxicity assay, purified T cells as effector cells, NCI-H82 target cells” value in [1] turned out to be 1.51 nM. In addition, the “EC90, 72 hour cytotoxicity assay, purified T cells as effector cells, SHP77 target cells” value in [1] was found to be 0.16 nM. In addition, the “EC90, 72 hour cytotoxicity assay (LDH release), non-stimulated PBMCs as effector cells, NCI-H82 target cells” value in test [2] amounted to 2.9 nM. The “EC90, 72 hour cytotoxicity assay (LDH release), non-stimulated PBMCs as effector cells, SHP77 target cells” value in [2] worked out at 3.4 nM. In addition, the binding result with EGF2+3 is “no binding (tested: 1.6 nM)”; with EGF3+4, “no binding (tested: 1.6 nM)”; with EGF1+2 it was “no binding (tested: 1.6 nM)”; with EGF4+5, “no binding (tested: 1.6 nM)”; with EGF5+6, “no binding (tested: 1.6 nM)”; in test [3] it was “binds”. The “Non-specific binding (RU)” value in test [4] came to 2 RU.

B2: DLL3#13/CD3#1 (bispecific antibody, human IgG1, kappa, lambda, L234A L235A)
chain 1: DVLMTQTPLSLPVSLGDQAAISCRSSQSIVHSNGNTYLEWYLQKPGQSPKVLIYKVSNRFSGVPDRFSGSGSGTDFTLKISRVEAEDLGVYYCFQGSHVPYTFGGGTKLEIKRTVAAPSVFIFPPSDEQLKSGTASVVCLLNNFYPREAKVQWKVDNALQSGNSQESVTEQDSKDSTYSLSSTLTLSKADYEKHKVYACEVTHQGLSSPVTKSFNRGECGGGGSEGKSSGSGSESKSTEGKSSGSGSESKSTGGGGSQIQLVQSGPELKKPGETVKISCKASGYTFTNYGVTWVKQAPGKGLKWMGWINTYSGAPTYADDFNGRFALSLETSASTAYLQINNLKNEDTATYFCARLDDYDLYYFDYWGQGTALTVSSASTKGPSVFPLAPSSKSTSGGTAALGCLVKDYFPEPVTVSWNSGALTSGVHTFPAVLQSSGLYSLSSVVTVPSSSLGTQTYICNVNHKPSNTKVDKRVEPKSCDKTHTCPPCPAPEAAGGPSVFLFPPKPKDTLMISRTPEVTCVVVDVSHEDPEVKFNWYVDGVEVHNAKTKPREEQYNSTYRVVSVLTVLHQDWLNGKEYKCKVSNKALPAPIEKTISKAKGQPREPQVYTLPPSREEMTKNQVSLWCLVKGFYPSDIAVEWESNGQPENNYKTTPPVLDSDGSFFLYSKLTVDKSRWQQGNVFSCSVMHEALHNHYTQKSLSLSPG
chain 2: EAVVTQEPSLTVSPGGTVTLTCRSSTGAVTTSNYANWVQEKPGQLPRGLIGGTNKRAPWVPARFSGSLLGGKAALTLSGAQPEDEAEYFCALWYSNLWVFGGGTKLTVLGQPKAAPSVTLFPPSSEELQANKATLVCLISDFYPGAVKVAWKADGSPVNTGVETTTPSKQSNNKYAASSYLSLTPEQWKSHRSYSCQVTHEGSTVEKTVAPAECSGGGGSEGKSSGSGSESKSTEGKSSGSGSESKSTGGGGSEVQLVESGGGLVQPGGSLKLSCAASGFTFNTYAMNWVRQAPGKGLEWVARIRSKYNNYATYYADSVKDRFTISRDDSKNTAYLQMNNLKTEDTAVYYCVRHGNFGNSYVSWFAYWGQGTLVTVSAASTKGPSVFPLAPSSKSTSGGTAALGCLVKDYFPEPVTVSWNSGALTSGVHTFPAVLQSSGLYSLSSVVTVPSSSLGTQTYICNVNHKPSNTKVDKRVEPKSCDKTHTCPPCPAPEAAGGPSVFLFPPKPKDTLMISRTPEVTCVVVDVSHEDPEVKFNWYVDGVEVHNAKTKPREEQYNSTYRVVSVLTVLHQDWLNGKEYKCKVSNKALPAPIEKTISKAKGQPREPQVYTLPPSREEMTKNQVSLSCAVKGFYPSDIAVEWESNGQPENNYKTTPPVLDSDGSFFLVSKLTVDKSRWQQGNVFSCSVMHEALHNRFTQKSLSLSPG
notes: as for B1
For the molecule B2, the binding result (with EGF2+3; with EGF3+4; in test [5]; in the test with EGF1+2; with EGF4+5; with EGF5+6) was “no binding (tested: 1.6 nM)” each time. The “Non-specific binding (RU)” value in test [4] came out at 3 RU.
